Experimental data: article PMC11162469, “Discovery of RXFP2 genetic association in resistant hypertensive men and RXFP2 antagonists for the treatment of resistant hypertension” (Scientific Reports, 2024)
Changes are numbered by the printed parent chain. Each block holds one molecule with its values, some of them ahead of it.

How the values were obtained:
[1] = Pharmacokinetic study of RXFP2 mAbs in rat; assay type: in vivo, Wistar Han rats; settings: for half-life, extrapolated values: Wistar Han rats, 1 mg/kg sc., over 28 days; for AUClast / Cmax / Tmax: male Wistar Han rats, 1 mg/kg s.c., n = 3, mean ± SD
Protocol: For the pharmacokinetic study of RXFP2 mAbs in rat, 1G1, 2D4, 4B1, 4G6, 1F2, and 3F3 were prepared in phosphate buffered saline (0.100 mg/mL) with low endotoxin (≤ 0.76 EU/mL). Adult male Wistar Han rats (n = 3/mAb) were administered 1 mg/kg subcutaneously (10 mL/kg). Blood samples (100 µL) were collected in EDTA containing tubes at 0.25, 3, 6 24, 48, 96, 168 (day 7), 336 (day 14), 504 (day 21), and 672 (day 28) hours post dose, immediately centrifuged (6100 rpm), and 50 µL plasma stored at − 80 °C until assay. Rats maintained health throughout the study and were anesthetized (isoflurane to effect) and euthanized on day 28.
Frozen rat plasma samples were thawed and analyzed using a qualified analytical method based on sample dilution, followed by Electrochemiluminescence immunoassay analysis. The lower limit of quantification (LLQ) was 0.1 µg/mL using a 10 µL aliquot of 51-fold diluted rat plasma with a higher limit of quantification (HLQ) of 10 µg/mL. RXFP2 mAbs were captured with LDLa protein and detected with sulfo-tag labeled mouse anti-rat IgG2b. The computer systems that were used to acquire and quantify data included Gyrolab Workstation Version 8.1.5 and Watson LIMS version 7.6.1. Rat pharmacokinetic parameters were calculated by non-compartmental analysis (NCA) analysis using WinNonlin Phoenix 64 (version 8.3). Values are reported in mean ± standard deviation.

[2] = target: T1, rat RXFP2 (Rattus norvegicus, UniProt F7EMH8); assay: INSL3-stimulated CYP11B1 mRNA expression in H295R stably expressing rat RXFP2; assay type: cell-based; set-up: expressed in transfected cells; settings: INSL3 EC80 (3.5 nM), 48 h, qPCR; N = 2
T1 sequence (F7EMH8 20-737): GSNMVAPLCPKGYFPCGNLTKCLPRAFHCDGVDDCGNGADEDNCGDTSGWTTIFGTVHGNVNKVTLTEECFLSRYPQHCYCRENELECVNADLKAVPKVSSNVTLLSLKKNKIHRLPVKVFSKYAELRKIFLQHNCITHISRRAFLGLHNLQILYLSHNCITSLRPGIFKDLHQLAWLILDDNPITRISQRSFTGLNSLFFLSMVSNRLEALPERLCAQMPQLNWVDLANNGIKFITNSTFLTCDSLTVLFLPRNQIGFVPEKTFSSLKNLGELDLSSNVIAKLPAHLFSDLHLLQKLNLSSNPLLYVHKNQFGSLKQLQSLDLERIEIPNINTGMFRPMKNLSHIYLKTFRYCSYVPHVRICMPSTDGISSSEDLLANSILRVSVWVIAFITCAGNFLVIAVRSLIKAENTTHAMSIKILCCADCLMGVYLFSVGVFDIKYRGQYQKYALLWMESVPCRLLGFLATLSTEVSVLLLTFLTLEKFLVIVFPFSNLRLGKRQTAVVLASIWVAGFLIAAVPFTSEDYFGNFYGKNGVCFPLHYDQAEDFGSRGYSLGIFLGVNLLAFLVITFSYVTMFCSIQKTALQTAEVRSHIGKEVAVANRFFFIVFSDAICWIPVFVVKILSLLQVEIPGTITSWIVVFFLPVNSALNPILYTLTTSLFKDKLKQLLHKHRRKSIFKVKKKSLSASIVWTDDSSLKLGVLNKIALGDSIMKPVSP
Protocol: (§1) RXFP2 antagonists were added to H295R-rRXFP2 before addition of INSL3 EC80 (3.5 nM) for 48 h, whereupon the cells and supernatants were collected. CYP11B1 and CYP11B2 mRNA were determined by qPCR and the RXFP2 blocker potencies were calculated (Fig. 5a). Fifteen antibodies have IC50s < 50 nM, and three of the top antibodies (1F2, 4G6, and 2D4) were selected for evaluation in steroid hormone secretion assays by ELISA.
(§2) Data entered as XY table, with x = [Inhibitor] (nM) and y = CYP11B2 or CYP11B1 fold change.

[3] = target: T1, rat RXFP2; assay: INSL3-stimulated CYP11B2 mRNA expression in H295R stably expressing rat RXFP2; assay type: cell-based; set-up: expressed in transfected cells; settings: INSL3 EC80 (3.5 nM), 48 h, qPCR; N = 2
Protocol: as §1, §2

[4] = target: T1, rat RXFP2; assay: INSL3-stimulated cAMP assay in HEK293 stably expressing rat RXFP2; settings: INSL3 EC80-stimulated cAMP, stable expression, N = 2; for IC50: read-out: HEK293-rat RXFP2 cAMP IC50;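 on all read-outs here: cAMP measured with an HitHunter kit in 384-well plates, 11-point dose–response curves up to 1 µM antibody, four-parameter variable-slope fit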
[5] = target: human RXFP2 (Homo sapiens, UniProt Q8WXD0); assay: INSL3-stimulated cAMP assay in HEK293 stably expressing human RXFP2; settings: read-out: HEK293-human RXFP2 cAMP IC50; INSL3 EC80-stimulated cAMP, stable expression; N = 2
Chain of human RXFP2 (Q8WXD0 whole entry): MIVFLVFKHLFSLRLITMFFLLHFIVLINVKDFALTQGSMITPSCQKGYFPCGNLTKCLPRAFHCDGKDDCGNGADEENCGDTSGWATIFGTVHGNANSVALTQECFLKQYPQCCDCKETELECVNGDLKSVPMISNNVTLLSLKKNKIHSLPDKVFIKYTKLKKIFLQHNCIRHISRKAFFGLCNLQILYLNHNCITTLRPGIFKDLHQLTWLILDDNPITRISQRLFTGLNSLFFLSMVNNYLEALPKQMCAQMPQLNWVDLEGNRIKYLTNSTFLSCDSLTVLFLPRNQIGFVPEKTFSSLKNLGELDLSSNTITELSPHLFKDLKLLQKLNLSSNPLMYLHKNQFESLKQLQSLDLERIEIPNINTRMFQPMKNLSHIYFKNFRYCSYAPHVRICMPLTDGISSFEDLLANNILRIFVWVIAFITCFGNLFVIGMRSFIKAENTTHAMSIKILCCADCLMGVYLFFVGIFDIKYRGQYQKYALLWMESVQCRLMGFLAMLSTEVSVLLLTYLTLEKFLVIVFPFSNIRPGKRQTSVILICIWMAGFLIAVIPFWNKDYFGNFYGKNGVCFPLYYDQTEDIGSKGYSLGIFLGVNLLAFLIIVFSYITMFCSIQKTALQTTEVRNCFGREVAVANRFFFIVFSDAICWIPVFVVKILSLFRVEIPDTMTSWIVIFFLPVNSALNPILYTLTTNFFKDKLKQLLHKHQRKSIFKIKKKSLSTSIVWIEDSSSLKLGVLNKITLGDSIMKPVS

IC50 [2]: 270 pM
IC50 [3]: 170 pM
HEK293-rat RXFP2 cAMP % Max Response [4]: 87.2%
IC50 [4]: 28000 pM
B1: 1G1: RXFP2 monoclonal antibody from hybridoma, recombinantly expressed in a rat IgG2b backbone (antibody, V domains shown)
VH: EVQLQQSGPELVKPGASVKMSCKASGYTFTDYNMHWVKQKPGQGLEWIGYINPYNDGTEYNEKFKGKATLTSDKSSSTAYMDLSSLTSEDSAVYYCARGLWFAMNYWGQGTSVTVSS
VL: DIQMTQSSSSFSVSLGDRVTITCKASEDIYNRLAWYQQKPGNTPRLLISGATILETGVPSRFSGSGSGKDYTLSIISLQTEDVATYYCQQYWIIPPTFGGGTKLEIK
half-life, extrapolated values [1]: ≥ 264 h
estimated dose to achieve tenfold higher IC50 HEK-rRXFP2 cAMP activity for approximately 28 days in rat ([1]; from trough concentration, dose-linearity assumed): approximately 10 mg/kg
AUClast [1]: 4490 ± 467 µg·h/mL
Cmax [1]: 9820 ± 766 ng/mL
Tmax [1]: 120 ± 42 h

IC50 [2]: 3850 pM
IC50 [3]: 510 pM
HEK293-rat RXFP2 cAMP % Max Response [4]: 78.5%
IC50 [4]: 37000 pM
B2: 3F3: RXFP2 monoclonal antibody from hybridoma, recombinantly expressed in a rat IgG2b backbone (antibody, V domains shown)
VH: QVQLQQPGSVLVRPGASVKLSCKASGYIFTSYWMHWVKQRPGQGLEWIGEIYPNSGRTSYNEKFKGKATVTVDTSSSTAYVDLSSLTSEDSAVYYCASGGHWFAYWGQGTLVTVSA
VL: B1 VL with T43A, I53S, T56A, I76T, A84S, I94T, P96Y
half-life, extrapolated values [1]: ≥ 264 h
AUClast [1]: 987 ± 200 µg·h/mL
Cmax [1]: 2350 ± 858 ng/mL
Tmax [1]: 168 ± 0 h

IC50 [2]: 270 pM
IC50 [3]: 230 pM
HEK293-rat RXFP2 cAMP % Max Response [4]: 69.7%
IC50 [4]: 19900 pM
IC50 [5]: ~589000 pM
B3: 3F1: RXFP2 monoclonal antibody from hybridoma, recombinantly expressed in a rat IgG2b backbone (antibody, V domains shown)
VH: QVQLKESGPGLVAPSQSLSITCTVSGFSLTDYGVSWIRQPPGKGLEWLGVIWGGGSTDYNPALKSRLSISKDNSKSQVFLKMNSLQADDTAMYYCVKHEGYYAMDYWGQGTSVTVSS
VL: DIQMTQSPASLSVSVGETVTITCRASENIYSNLAWYQQKQGKSPHLLVYAVTNLADGVPSRFSGSGSGTQYSLKINSLQSEDFGSYYCQHFWGTPYTFGGGTKLEIK

IC50 [2]: 330 pM
IC50 [3]: 200 pM
HEK293-rat RXFP2 cAMP % Max Response [4]: 83.3%
IC50 [4]: 16100 pM
B4: 3G4: RXFP2 monoclonal antibody from hybridoma, recombinantly expressed in a rat IgG2b backbone (antibody, V domains shown)
VH: QVQLKESGPGLVAPSQSLSITCTVSGFSLTSYGVSWVRQPPGKGLEWLGVIWGDGSTNYHSALISRLSISKDNSKSQVFLKLNSLQTDDTATYYCAKSLGYYAMDYWGQGTSVTVSS
VL: B3 VL with A34V, H45Q, V51A, D56E, T94P, Y96W

IC50 [2]: 330 pM
IC50 [3]: 160 pM
HEK293-rat RXFP2 cAMP % Max Response [4]: 71.6%
IC50 [4]: 15800 pM
B5: 3H1: RXFP2 monoclonal antibody from hybridoma, recombinantly expressed in a rat IgG2b backbone (antibody, V domains shown)
VH: QVQLKETGPGLVAPSQSLSITCTVSGFSLTNYGVNWVRQPPGKGLEWLVVIWSDGSTNYNSALKSRLSISKDNSKSQVFLKMNSLQTDDTAMYYCARQQGYYAMDYWGQGTSVIVSS
VL: B3 VL with H45Q, T94P

IC50 [2]: 260 pM
IC50 [3]: 130 pM
HEK293-rat RXFP2 cAMP % Max Response [4]: 85.7%
IC50 [4]: 18900 pM
B6: 4H2: RXFP2 monoclonal antibody from hybridoma, recombinantly expressed in a rat IgG2b backbone (antibody, V domains shown)
VH: QVQLRQSGPSLVQPSQSLSITCTVSGFSLTNYGVHWVRQSPGKGLEWLGVIWRGGNTDHNAAFMSRLSITKDNSESQVFFKMNSLQVDDTAIYYCAKAEGYYALDYWGQGTSVTVYS
VL: B3 VL with H45Q, Y96W

IC50 [2]: 230 pM
IC50 [3]: 170 pM
HEK293-rat RXFP2 cAMP % Max Response [4]: 86.6%
IC50 [4]: 21400 pM
IC50 [5]: ~116000 pM
B7: 4B8: RXFP2 monoclonal antibody from hybridoma, recombinantly expressed in a rat IgG2b backbone (antibody, V domains shown)
VH: QVQLKQSGPGLVQPSQSLSITCTVSGFSLSRYGVHWVRQSPGKGLEWLGVIWSGGSTEYNAVFKSRLSISKDNSKSQVFFKMNSLQANDTAIYYCVRADGYYAMEYWGQGTSVTVSS
VL: B3 VL with H45Q, S85N

IC50 [2]: 2850 pM
IC50 [3]: 310 pM
HEK293-rat RXFP2 cAMP % Max Response [4]: 91.0%
IC50 [4]: 23200 pM
B8: 4A5: RXFP2 monoclonal antibody from hybridoma, recombinantly expressed in a rat IgG2b backbone (antibody, V domains shown)
VH: DVQLVESGGGLVQPGGSRKLSCAASGFTFSTFGMHWVRQAPEKGLEWVAYISSGSSTIYYADTVKGRFTISRDNPKNTLFLQMTSLRSDDTAMYYCSRSYYGSAHYFDYWGQGTTLTVSS
VL: B3 VL with H45Q, A50V, V51A, K74R, S77N, S85N, Y96P

IC50 [2]: 210 pM
IC50 [3]: 150 pM
HEK293-rat RXFP2 cAMP % Max Response [4]: 89.2%
IC50 [4]: 14200 pM
B9: 4H5: RXFP2 monoclonal antibody from hybridoma, recombinantly expressed in a rat IgG2b backbone (antibody, V domains shown)
VH: QVQLKQSGPGLVQPSQSLSITCTVSGFSLTNYGVHWVRQSPGKGLEWLGVIWRDGNTDYNAAFMSRLSITKDNSKSQVFFEMNSLQVDDTAIYYCCRGDGYYAMGYWGQGTSVTVSS
VL: B3 VL with K39R, K42R, H45Q, V51A, S85N, T94S, Y96R

HEK293-rat RXFP2 cAMP % Max Response [4]: 69.7%
IC50 [4]: 150000 pM
IC50 [5]: ~218000 pM
B10: 4H1: RXFP2 monoclonal antibody from hybridoma, recombinantly expressed in a rat IgG2b backbone (antibody, V domains shown)
VH: QIQLVQSGPELKKPGETVKISCKTSGYTFTKYPMHWVKQAPGEGLKWMGWINTYSGLPTFADDFKGRFAFSLETSANTADLQINNLKNEDMATYFCAREGKKLSGYFDYWGQGTTLTVSS
VL: DIKMTQSPSSMYASLGERVTITCKASQDINSYLTWFQQKPGQSPKTLIYRANRFVDGVPSRFSGSGSGQDYSLTITSLEYEDMGIYYCLQYDEFPYTFGGGTQLEIK
